Data reported in patent US9409976B2, “CDIM binding proteins and uses thereof” (IGM BIOSCIENCES, INC., priority 2012, dated 2016).
“Also recorded” adds a separate entry of the source.

Key:
[1] = test system: Human pro-B NALM-6 cells; test: Human complement dependent cytotoxicity (CDC) assay, CCK8; assay type: cell-based; details: Nalm-6 cells with human complement, 24 hours, supernatant containing expressed antibody
Text: “Complement-dependent cytotoxicity” or “CDC” refers to the lysis of a target cell in the presence of complement. Activation of the classical complement pathway is initiated by the binding of the first component of the complement system (CIq) to antibodies, which are bound to their cognate antigen. To assess complement activation, a CDC assay, as described in Hinton et al, J. Immunol. 2006 Jan. 1; 176(1):346-56, may be performed. Briefly, this example describes how the cytotoxicity of the CDIM binding proteins was investigated. Human pro-B NALM-6 cells (50,000) were plated in a 96-well flat bottom microtiter plate. […] After 24 hours, a colorimetric substrate CCK8 was added for 3 hours and then the optical density (OD) was measured at 450 nm wavelength on a Microtiter Plate Reader. Quantification of the increase in OD is directly proportional to viable proliferating NALM-6 cells. […] The IC50 was calculated for each antibody using the same approach as described above.
TABLE 2 summarizes the data shown in FIG. 6 and FIGS. 7A-7F for the CDIM binding proteins comprising variable heavy chains H1, H2, H3, H4, H5, H6, H7, H9, H10, H11, H12, H13, H14, H15, H16, H17, H18, H19, H20, and H21, respectively. The ELISA value refers to the concentration of IgM determined in the conditioned media following transient transfection of IgM heavy and light chains. […]

[2] = ELISA binding to non-CDIM antigen LPS; details: maximal reaction (OD450 nm), IgM at 10 μg/ml
Procedure: (§1) This example describes the binding specificity of the CDIM binding proteins for antigens other than CDIM. The antibodies were purified by affinity chromatography. Antibodies were tested across a broad dose range against a panel of antigens available in commercially available ELISA kits. ELISA plates pre-coated with the antigens, ssDNA (Inova Diagnostics, Inc, San Diego, Calif.), dsDNA (Inova Diagnostics, Inc., San Diego, Calif.), cardiolipin (Inova Diagnostics, Inc., San Diego, Calif.) MDA-LDL (malondialdehyde modified low density lipoprotein) (Rocky Mountain Diagnostics, Colorado Springs, Colo.) were purchased from various vendors. Lipid A (Avanti Polar Lipids, Alabaster, Ala.) was purchased as an antigen, dissolved in ethanol and diluted in 100 mM Na carbonate buffer at pH 9.5 prior to coating onto ELISA plates. Anti-CDIM antibodies were used at concentrations indicated and ELISA was performed according to manufacturers recommendations. Briefly, plates were blocked with BSA-milk powder for 1 hour, followed by washing. The disclosed antibodies were added at the concentrations indicated. The antibodies were allowed to bind for 1.5 hours at room temperature followed by a wash step. The HRP-conjugated anti-human IgM antibody was added, followed by substrate addition. Results were quantified using absorbance at 450 nm (Bio-Tek Synergy HT). […]

[3] = test system: ss DNA; test: ELISA binding to non-CDIM antigen ssDNA; details: maximal reaction (OD450 nm), IgM at 10 μg/ml
Procedure: as §1

[4] = test system: ds DNA; test: ELISA binding to non-CDIM antigen dsDNA; details: maximal reaction (OD450 nm), IgM at 10 μg/ml
Procedure: as §1

[5] = ELISA binding to non-CDIM antigen cardiolipin; details: maximal reaction (OD450 nm), IgM at 10 μg/ml
Procedure: as §1

[6] = ELISA binding to non-CDIM antigen chondroitin sulfate; details: maximal reaction (OD450 nm), IgM at 10 μg/ml
[7] = ELISA binding to non-CDIM antigen heparan sulfate; details: maximal reaction (OD450 nm), IgM at 10 μg/ml
Procedure: as §1

[8] = ELISA binding to panel of antigens other than CDIM (FIGS. 8 and 9); details: broad dose range, absorbance at 450 nm, listed as MAb 216
Text: FIG. 8, panels A-E depict ELISA based binding data that is representative of the CDIM binding proteins to antigens other than CDIM. Results using the antigens single stranded DNA (ssDNA), double stranded DNA (dsDNA), lipid A, cardiolipin, and maleonaldehyde LDL (MDA-LDL) are shown in panels A-E, respectively.
FIG. 9, panels A-F depict ELISA based binding data that is representative of the CDIM binding proteins to antigens other than CDIM. Results using the antigens single stranded DNA (ssDNA), double stranded DNA (dsDNA), lipopolysaccharide, cardiolipin, chondoitrin and heparan, are shown in panels A-F, respectively.
This example describes the binding specificity of the CDIM binding proteins for antigens other than CDIM. The antibodies were purified by affinity chromatography. Antibodies were tested across a broad dose range against a panel of antigens available in commercially available ELISA kits. ELISA plates pre-coated with the antigens, ssDNA (Inova Diagnostics, Inc, San Diego, Calif.), dsDNA (Inova Diagnostics, Inc., San Diego, Calif.), cardiolipin (Inova Diagnostics, Inc., San Diego, Calif.) MDA-LDL (malondialdehyde modified low density lipoprotein) (Rocky Mountain Diagnostics, Colorado Springs, Colo.) were purchased from various vendors. […] Results were quantified using absorbance at 450 nm (Bio-Tek Synergy HT).

B1: hm216: naturally occurring human monoclonal IgM CDIM binding antibody (SEQ ID NO: 108), used as experimental reference antibody (protein)
chain: QVQLQQWGAGLLKPSETLSLTCAVYGGSFSGYYWSWIRQPPGKGLEWIGEINHSGSTNYNPSLKSRVTISVDTSKNQFSLKLSSVTAADTAVYYCARARTARGSSIFDYWGQGTLVTVSSGSASAPTLFPLVSCENSPSDTSSVAVGCLAQDFLPDSITFSWKYKNNSDISSTRGFPSVLRGGKYAATSQVLLPSKDVMQGTDEHVVCKVQHPNGNKEKNVPLPVIAELPPKVSVFVPPRDGFFGNPRKSKLICQATGFSPRQIQVSWLREGKQVGSGVTTDQVQAEAKESGPTTYKVTSTLTIKESDWLSQSMFTCRVDHRGLTFQQNASSMCVPDQDTAIRVFAIPPSFASIFLTKSTKLTCLVTDLTTYDSVTISWTRQNGEAVKTHTNISESHPNATFSAVGEASICEDDWNSGERFTCTVTHTDLPSPLKQTISRPKGVALHRPDVYLLPPAREQLNLRESATITCLVTGFSPADVFVQWMQRGQPLSPEKYVTSAPMPEPQAPGRYFAHSILTVSEEEWNTGETYTCVVAHEALPNRVTERTVDKSTGKPTLYNVSLVMSDTAGTCY
With B1 as the molecule, how does the “Cytotoxicity IC50” value [1] read?
The value was 1.762 µg/mL.

And the LPS relative reactivity [2]?
Its LPS relative reactivity is “++++ (The (+), (++), (+++) and (++++) scores are given for maximal ELISA values of 0.3 to 1, 1 to 2, 2 to 3 and above 3, respectively)”.

What about the “ss DNA relative reactivity” value [3] of the same molecule?
Its value is “++++ (The (+), (++), (+++) and (++++) scores are given for maximal ELISA values of 0.3 to 1, 1 to 2, 2 to 3 and above 3, respectively)”.

What about the “ds DNA relative reactivity” value [4] of the same molecule?
The value was “++++ (The (+), (++), (+++) and (++++) scores are given for maximal ELISA values of 0.3 to 1, 1 to 2, 2 to 3 and above 3, respectively)”.

And the Cardiolipin relative reactivity [5]?
Its Cardiolipin relative reactivity is “+++ (The (+), (++), (+++) and (++++) scores are given for maximal ELISA values of 0.3 to 1, 1 to 2, 2 to 3 and above 3, respectively)”.

And the “Chondroitin Sulfate relative reactivity” value [6]?
The value was “++++ (The (+), (++), (+++) and (++++) scores are given for maximal ELISA values of 0.3 to 1, 1 to 2, 2 to 3 and above 3, respectively)”.

What about the “Heparan Sulfate relative reactivity” value [7] of the same molecule?
The value was “++++ (The (+), (++), (+++) and (++++) scores are given for maximal ELISA values of 0.3 to 1, 1 to 2, 2 to 3 and above 3, respectively)”.

And the “Binding to antigens other than CDIM” value [8]?
Its value is “binds to all the antigens tested; also recorded: binds to all of the antigens across a broad dose range”.
